Here are results for one substance from US20220088215A1.

In the assay the target is Asialoglycoprotein receptor 1 (ASGR1) on the surface of HEPG2 cells (human) (UniProt P07306). Kind of assay: cell-based or functional assay.
Sequence of UniProt P07306 (P07306 whole entry): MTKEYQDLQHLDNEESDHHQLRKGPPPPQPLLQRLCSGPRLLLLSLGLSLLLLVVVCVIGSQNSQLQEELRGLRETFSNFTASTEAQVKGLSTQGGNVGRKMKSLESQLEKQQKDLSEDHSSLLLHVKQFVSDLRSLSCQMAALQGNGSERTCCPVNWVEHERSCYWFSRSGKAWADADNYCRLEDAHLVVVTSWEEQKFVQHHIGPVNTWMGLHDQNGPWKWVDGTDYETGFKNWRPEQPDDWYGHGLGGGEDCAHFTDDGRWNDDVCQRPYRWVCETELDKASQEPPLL

With “Anti-Asialoglycoprotein Receptor 1/HL-1 antibody (abCAM, Product Number ab49355)”, the improvement of mmu-miR-298-5p uptake efficiency into HEPG2 cells, against unmodified EVs is 60%; the relative quantification of mmu-miR-298-5p in Hep-G2 cells (qRT-PCR, relative ratio to control cells) (relative ratio) stood at 2000; the relative quantification of mmu-miR-298-5p in Hep-G2 cells, against DharmaFECT transfection is 8 fold.
